Laboratory results: patent US20240317890A1 (INSTITUT CURIE, published 2024)

target: T1, recombinant human Her2/ErbB2 Fc Tag (ACROBiosystems) (human, UniProt P04626 23-652); test: BLI (Octet-HTX), HER2-Fc captured on protein A biosensors, sdAb in solution, 37 C
T1 construct: Bought product; Captured on protein A biosensors; also called HER2-Fc; not shown: Fc tag of the bought product
Text: Affinity measurements: Affinity measurements can be done by surface plasmon resonance (for example as detailed in Moutel, Sandrine et al. “NaLi-H1: A universal synthetic library of humanized nanobodies providing highly functional antibodies and intrabodies.” eLife vol. 5 e16228. 19 Jul. 2016, doi:10.7554/eLife.16228). More particularly, binding affinities of selected hs2dAb fused to a 10HIS tag measured by surface plasmon resonance single cycle kinetics method. Dissociation equilibrium constant KD corresponds to the ratio between off-rate and on-rate kinetic constant Koff/Kₒₙ. […] Affinity measurements were also performed on an Octet-HTX (Sartorius) by bio-Layer Interferometry (BLI) which is an optical technique for measuring macromolecular interactions by analyzing interference patterns of white light reflected from the surface of a biosensor tip. BLI experiments were used to determine the kinetics and affinity of molecular interactions. Biosensors with proteinA were used to capture recombinant human Her2/ErbB2 Fc Tag (ACROBiosystems), the sensors were then dipped in wells containing purified sdAb to measure kinetics at 37° C.
Affinity measurement were also performed using BLI as above detailed.

| Binder | Kd | koff | kon |
| --- | --- | --- | --- |
| anti-HER2 humanized synthetic single domain antibody sdAb no 6 (VHH, Purified sdAb in BLI; Any tag is not described for this assay; also called sdAb 6) VHH: EVQLQASGGGFVQPGGSLRLSCAASGRGYTGTTMGWFRQAPGKEREFVSAISWTSNQTSYYADSVKGRFTISRDNSKNTVYLQMNSLRAEDTATYYCAMMPLPRWKGYWGQGTQVTVSS | 8.4 nM | 0.0066 s⁻¹ | 780000 M⁻¹ s⁻¹ |
| anti-HER2 humanized synthetic single domain antibody sdAb no 5 (VHH, Purified sdAb in BLI; also called sdAb 5; hsdAb 5) VHH: EVQLQASGGGFVQPGGSLRLSCAASGYTFSEETMGWFRQAPGKEREFVSAISWNHTFFEYYADSVKGRFTISRDNSKNTVYLQMNSLRAEDTATYYCAVTPLPPNKAYWGQGTQVTVSS | 33.3 nM | 0.0015 s⁻¹ | 44000 M⁻¹ s⁻¹ |
| anti-HER2 humanized synthetic single domain antibody sdAb no 4 (VHH, Purified sdAb in BLI; Any tag is not described for this assay; also called sdAb 4) VHH: EVQLQASGGGFVQPGGSLRLSCAASGYTSRESGMGWFRQAPGKEREFVSAISRDQDGISYYADSVKGRFTISRDNSKNTVYLQMNSLRAEDTATYYCAMIPLTRNAKYWGQGTQVTVSS | 5.2 nM | 0.0076 s⁻¹ | 1.47e+06 M⁻¹ s⁻¹ |

Binders with a lower Kd, results first:

| Kd | koff | kon | Binder |
| --- | --- | --- | --- |
| 4.1 nM | 0.0049 s⁻¹ | 1.2e+06 M⁻¹ s⁻¹ | anti-HER2 humanized synthetic single domain antibody sdAb no 2 (VHH, Purified sdAb in BLI; also called sdAb 2; hsdAb 2) VHH: EVQLQASGGGFVQPGGSLRLSCAASGDSYNESSMGWFRQAPGKEREFVSAISARGNHPLYYADSVKGRFTISRDNSKNTVYLQMNSLRAEDTATYYCASMPMPKWKKYWGQGTQVTVSS |
| 4.6 nM | 0.004 s⁻¹ | 880000 M⁻¹ s⁻¹ | anti-HER2 humanized synthetic single domain antibody sdAb no 1 (VHH, Purified sdAb in BLI; also called sdAb 1; hsdAb1) VHH: EVQLQASGGGFVQPGGSLRLSCAASGATSNISNMGWFRQAPGKEREFVSAISRAESRPLYYADSVKGRFTISRDNSKNTVYLQMNSLRAEDTATYYCAYMPLVRHKAYWGQGTQVTVSS |
